Test results reported in article PMC7769281, “The plasticity of the pyruvate dehydrogenase complex confers a labile structure that is associated with its catalytic activity” (PLoS ONE, 2020).

Target: the molecule itself
Assay: SEC; FLAG-purified E3-5xFLAG on Superose 6 in 350 mM NaCl; peak fraction (16 ml, ~230 kDa) analysed by MudPIT

B1: yeast PDC E3, Lpd1-5xFLAG (natural protein, S. cerevisiae, UniProt P09624 22-499, looked up)
chain: TINKSHDVVIIGGGPAGYVAAIKAAQLGFNTACVEKRGKLGGTCLNVGCIPSKALLNNSHLFHQMHTEAQKRGIDVNGDIKINVANFQKAKDDAVKQLTGGIELLFKKNKVTYYKGNGSFEDETKIRVTPVDGLEGTVKEDHILDVKNIIVATGSEVTPFPGIEIDEEKIVSSTGALSLKEIPKRLTIIGGGIIGLEMGSVYSRLGSKVTVVEFQPQIGASMDGEVAKATQKFLKKQGLDFKLSTKVISAKRNDDKNVVEIVVEDTKTNKQENLEAEVLLVAVGRRPYIAGLGAEKIGLEVDKRGRLVIDDQFNSKFPHIKVVGDVTFGPMLAHKAEEEGIAAVEMLKTGHGHVNYNNIPSVMYSHPEVAWVGKTEEQLKEAGIDYKIGKFPFAANSRAKTNQDTEGFVKILIDSKTERILGAHIIGPNAGEMIAEAGLALEYGASAEDVARVCHAHPTLSEAFKEANMAAYDKAIHC
notes: Dihydrolipoamide dehydrogenase (E3, Lpd1), S. cerevisiae BY4741; also called E3-5xFLAG; yPDC-E3
  binding result: binds
